Data reported in the supplement of paper PMC9112550, “Optimization of the antimicrobial peptide Bac7 by deep mutational scanning” (BMC Biology, 2022).

System: Escherichia coli TOP10
Assay: shrunken log2 fold change of peptide-encoding DNA abundance (4.5 h post-induction vs induction); higher = less antimicrobial activity (less host growth inhibition)
Conditions: time post-induction: 4.5 h; library: site-saturation at positions 5, 18, 19, 20
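Note: peptides expressed intracellularly from a pBAD plasmid library in pooled LB shake-flask culture, induced with 0.3% L-arabinose, DNA abundance read by NGS, three biological replicates, DESeq2 with apeglm shrinkage.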

Sequence	shrunken log2 fold change
RRIRCRPPRLPRPRPRPLVDPRP	1.58
RRIRIRPPRLPRPRPRPSFTPRP	-0.573
RRIRNRPPRLPRPRPRPGPIPRP	0.058
RRIRLRPPRLPRPRPRPVCIPRP	-0.498
RRIRVRPPRLPRPRPRPVFRPRP	0.189
RRIRSRPPRLPRPRPRPWRVPRP	0.108
RRIRLRPPRLPRPRPRPEYGPRP	-0.029
RRIRARPPRLPRPRPRPWQPPRP	0.0351
RRIRDRPPRLPRPRPRPLPWPRP	0.572
RRIRFRPPRLPRPRPRPFLGPRP	0.0749
RRIRIRPPRLPRPRPRPQAYPRP	0.0364
RRIRERPPRLPRPRPRPAFVPRP	0.121
RRIRHRPPRLPRPRPRPWHWPRP	-0.135
RRIRHRPPRLPRPRPRPFIPPRP	0.0413
RRIRCRPPRLPRPRPRPTCAPRP	0.178
RRIRCRPPRLPRPRPRPLNRPRP	-0.413
RRIRRRPPRLPRPRPRPQMQPRP	-0.205
RRIRGRPPRLPRPRPRPHIKPRP	-0.0279
RRIRVRPPRLPRPRPRPPSQPRP	0.125
RRIRRRPPRLPRPRPRPWCNPRP	-0.543
RRIRHRPPRLPRPRPRPFNNPRP	-0.159
RRIRPRPPRLPRPRPRPWPDPRP	-0.149
RRIRARPPRLPRPRPRPMFVPRP	-0.134
RRIRRRPPRLPRPRPRPIIYPRP	-0.0798
RRIRGRPPRLPRPRPRPVEIPRP	0.177

Sequence	shrunken log2 fold change
RRIRGRPPRLPRPRPRPKMFPRP	0.065
RRIRLRPPRLPRPRPRPWDDPRP	-0.208
RRIRSRPPRLPRPRPRPCDAPRP	-0.122
RRIRERPPRLPRPRPRPYIHPRP	-0.17
RRIRYRPPRLPRPRPRPLHDPRP	-0.74
RRIRQRPPRLPRPRPRPALMPRP	0.0376
RRIRNRPPRLPRPRPRPAWCPRP	0.0129
RRIRQRPPRLPRPRPRPDAHPRP	-0.0825
RRIRHRPPRLPRPRPRPHGHPRP	0.219
RRIRMRPPRLPRPRPRPQYPPRP	-0.0385
RRIRNRPPRLPRPRPRPRTWPRP	0.415
RRIRHRPPRLPRPRPRPYDFPRP	-0.0434
RRIRERPPRLPRPRPRPFNAPRP	-0.328
RRIRNRPPRLPRPRPRPTSMPRP	0.0812
RRIRVRPPRLPRPRPRPGAAPRP	0.653
RRIRFRPPRLPRPRPRPICIPRP	-0.399
RRIRHRPPRLPRPRPRPMEIPRP	-0.0801
RRIRPRPPRLPRPRPRPTLEPRP	0.393
RRIRDRPPRLPRPRPRPTNLPRP	-0.182
RRIRGRPPRLPRPRPRPQKCPRP	0.122
RRIRERPPRLPRPRPRPFSPPRP	-0.745
RRIRIRPPRLPRPRPRPACEPRP	0.17
RRIRMRPPRLPRPRPRPRREPRP	1.27
RRIRPRPPRLPRPRPRPKSKPRP	-0.255
RRIRSRPPRLPRPRPRPCMCPRP	-0.0077

Sequence	shrunken log2 fold change
RRIRDRPPRLPRPRPRPIICPRP	-0.0435
RRIRYRPPRLPRPRPRPHHMPRP	-0.311
RRIRLRPPRLPRPRPRPHCSPRP	-0.747
RRIRERPPRLPRPRPRPKPNPRP	0.0803
RRIRARPPRLPRPRPRPWRTPRP	0.14
RRIRGRPPRLPRPRPRPLTRPRP	0.803
RRIRMRPPRLPRPRPRPLFKPRP	-0.0689
RRIRERPPRLPRPRPRPHAGPRP	0.0727
RRIRNRPPRLPRPRPRPWFCPRP	-0.861
RRIRARPPRLPRPRPRPWMCPRP	-0.12
RRIRVRPPRLPRPRPRPTYPPRP	-0.194
RRIRRRPPRLPRPRPRPKGAPRP	0.28
RRIRERPPRLPRPRPRPLTPPRP	-0.123
RRIRERPPRLPRPRPRPPPEPRP	0.574
RRIRNRPPRLPRPRPRPDNFPRP	-0.00141
RRIRIRPPRLPRPRPRPQFLPRP	-0.186
RRIRRRPPRLPRPRPRPHGKPRP	0.0359
RRIRPRPPRLPRPRPRPMYEPRP	-0.527
RRIRDRPPRLPRPRPRPSKAPRP	-0.393
RRIRERPPRLPRPRPRPALWPRP	0.241
RRIRRRPPRLPRPRPRPDTLPRP	0.06
RRIRPRPPRLPRPRPRPGNEPRP	-0.247
RRIRFRPPRLPRPRPRPNIYPRP	-0.116
RRIRGRPPRLPRPRPRPPWEPRP	0.528
RRIRGRPPRLPRPRPRPKKIPRP	0.494

Sequence	shrunken log2 fold change
RRIRGRPPRLPRPRPRPSRQPRP	0.133
RRIRMRPPRLPRPRPRPWLFPRP	0.457
RRIRKRPPRLPRPRPRPCHSPRP	-0.0177
RRIRLRPPRLPRPRPRPIIGPRP	-0.0425
RRIRKRPPRLPRPRPRPRTIPRP	0.262
RRIRCRPPRLPRPRPRPFWLPRP	-0.227
RRIRLRPPRLPRPRPRPWRLPRP	0.0799
RRIRWRPPRLPRPRPRPHHHPRP	-0.428
RRIRQRPPRLPRPRPRPVPGPRP	-0.141
RRIRYRPPRLPRPRPRPGAPPRP	0.312
RRIRCRPPRLPRPRPRPSKPPRP	-0.109
RRIRPRPPRLPRPRPRPSMRPRP	0.501
RRIRQRPPRLPRPRPRPECLPRP	-0.21
RRIRIRPPRLPRPRPRPPYMPRP	-1.19
RRIRQRPPRLPRPRPRPWYNPRP	-0.375
RRIRTRPPRLPRPRPRPWGPPRP	-0.0265
RRIRPRPPRLPRPRPRPFCLPRP	-0.0969
RRIRQRPPRLPRPRPRPMKFPRP	-0.21
RRIRQRPPRLPRPRPRPVKGPRP	-0.0475
RRIRCRPPRLPRPRPRPQQSPRP	-0.0144
RRIRQRPPRLPRPRPRPWLRPRP	-0.112
RRIRRRPPRLPRPRPRPSQRPRP	0.0863
RRIRCRPPRLPRPRPRPATWPRP	-0.104
RRIRPRPPRLPRPRPRPEPTPRP	0.416
RRIRPRPPRLPRPRPRPFTVPRP	0.0237

Sequence	shrunken log2 fold change
RRIRGRPPRLPRPRPRPWEQPRP	0.724
RRIRYRPPRLPRPRPRPIWGPRP	-0.0267
RRIRLRPPRLPRPRPRPIHGPRP	-0.0797
RRIRLRPPRLPRPRPRPITMPRP	-0.168
RRIRMRPPRLPRPRPRPPFIPRP	0.082
RRIRFRPPRLPRPRPRPDTTPRP	0.00968
RRIRLRPPRLPRPRPRPTAPPRP	0.645
RRIRQRPPRLPRPRPRPAMPPRP	0.306
RRIRYRPPRLPRPRPRPVKYPRP	-0.135
RRIRNRPPRLPRPRPRPMYEPRP	0.0112
RRIRLRPPRLPRPRPRPWVDPRP	-0.0575
RRIRIRPPRLPRPRPRPEFQPRP	-0.129
RRIRYRPPRLPRPRPRPTEVPRP	-0.016
RRIRFRPPRLPRPRPRPCHRPRP	-0.113
RRIRGRPPRLPRPRPRPKYGPRP	-0.111
RRIRGRPPRLPRPRPRPTKTPRP	0.0741
RRIRPRPPRLPRPRPRPMYQPRP	-0.207
RRIRMRPPRLPRPRPRPGIDPRP	0.403
RRIRCRPPRLPRPRPRPIFHPRP	-0.333
RRIRQRPPRLPRPRPRPEDPPRP	-0.00697
RRIRMRPPRLPRPRPRPRQDPRP	0.271
RRIRERPPRLPRPRPRPGLIPRP	0.101
RRIRWRPPRLPRPRPRPVESPRP	0.0647
RRIRTRPPRLPRPRPRPCSGPRP	-0.307
RRIRNRPPRLPRPRPRPYVYPRP	-1.31
